# Laboratory results as given in patent US20240166738A1 (priority 2021, published 2024).
# B1: TM-80: anti-TMEM106B monoclonal antibody; VH SEQ ID NO: 485, VL SEQ ID NO: 520 (antibody, V domains shown)
# VH: QVQLQQPGAELVKPGASVKLSCKASGYTFTTFWMHWVKQRPGQGLEWIGNIDPSDSETHYNQEFKDKATLTVDRSSNTAYMQLSSLTSEDSAVYYCARSSNWDNFDYWGQGTAVTVSS
# VL: DIVMTQAAPSVPVTPGESVSISCRSSQSLLHVNGHTYLYWFLQRPGQSPQLLIYRMSNLASGVPDRFSGSGSGTVFTLRISRVETEDVGIYYCMQHLQYPFTFGSGTKLEIK
# modifications: Variable Heavy Chain -- TM-80; Variable Light Chain -- TM-80
# Molecular target: GST-TMEM106B (truncated, comprising amino acids 122-210 of SEQ ID NO:1) (Homo sapiens, UniProt Q9NUM4)
# Assay: Pre-mix epitope binning of anti-TMEM106B antibodies (Carterra / Lake Pharma)
# Format: binding
# Parameters: key to epitope bin: Bin 1: competes for binding to the same or overlapping TMEM106B region as the TM1, TM17, TM22, TM26, TM79, and/or TM82 antibodies; Bin 2: competes for binding to the same or overlapping TMEM106B region as the TM3, TM9, TM10, TM11, TM12, TM13, TM18, TM19, TM21, TM24, TM25, TM32, TM35, TM37, TM42, TM45, TM48, TM54, TM59, TM60, TM61, and/or TM76 antibodies; Bin 3: competes for binding to the same or overlapping TMEM106B region as the TM7, TM15, TM83, and/or TM84 antibodies; Bin 4: competes for binding to the same or overlapping TMEM106B region as the TMS, TM28, TM29, TM30, TM63, TM64, TM72, TM78, TM80, TM86, and/or TM88 antibodies; Bin 5: does not bind to a truncated TMEM106B comprising amino acids 122-210 of SEQ ID NO:1
# GST-TMEM106B (truncated, comprising amino acids 122-210 of SEQ ID NO:1), sequence (Q9NUM4 122-210): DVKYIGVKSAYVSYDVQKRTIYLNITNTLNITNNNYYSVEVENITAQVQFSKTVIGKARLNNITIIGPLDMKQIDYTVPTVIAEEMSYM
molecule,measurement,setting,value
B1,epitope bin,competition for binding to truncated GST-TMEM106B (amino acids 122-210),Bin 4
same,Binding Community/Bin,"epitope bin number, pre-mix binning on truncated GST-TMEM106B",4
